From PMC4373355

Assays:
[1] = target: T1, Human amylin (1-37) (human); assay: cross-linking; conditions: remark: other sources report otherwise
T1 chain: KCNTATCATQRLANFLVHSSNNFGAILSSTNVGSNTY

[2] = target: T1, Human amylin (1-37) (human); assay: cross-linking; conditions: remark: other sources report otherwise

stoichiometry N [1]: < 6
stoichiometry N [2]: 6
B1: Human amylin (1-37) (peptide)
peptide: T1 chain
